The results in this text go back to patent US20100081799A1, “Chelating Agent” (priority 2006, published 2010).

For series [1], the system named is AR42J tumor bearing nude mice. The series is described as follows: in vivo. To be noted: mouse. Here is the method: (§1) Animal experiments. Due to its high sst2-somatostatin receptor expression, the rat pancreatic tumor cell line AR42J was used as a tumor model.^55 To establish tumor growth, cells were detached from the surface of the culture flasks using 1 mM EDTA in PBS, centrifuged and re-suspended in serum-free culture medium (RPMI-1640, Biochrom, Berlin, Germany). Concentration of the cell suspension was 3.7×10^6 cells/100 μL serum. Nude mice (female, 6-8 weeks) were injected 100 μL of the cell suspension subcutaneously into the flank.
(§2) For biodistribution studies, mice were intravenously injected 38 μCi [^68Ga]19 (corresponding to 0.15 μg of peptide) in 100 μL PBS into the tail vein. Non-specific tissue accumulation of the radioligand was determined by coinjection of an excess of cold competitor (20 μg Tyr^3-octreotide/mouse). At different time points after radioligand injection (30 and 60 min p.i.) mice (n=5 per time point; n=3 for blocking study at 60 min p.i.) were sacrificed and dissected. The organs of interest were removed, weighed and counted in a […] (Wallach, Turku, Finland). Data are expressed as percent injected dose per gram tissue (% iD/g).

A further series in a line: in vivo. On the set-up: species or system mice. To be noted: female, nude, mouse, iv, 38 uCi, total radioactivity. Here is the method: as §1, §2
Where [2] appears, read: blood concentration of the radioligand.

On to `CC(=NOCC(=O)N[C@H](Cc1ccccc1)C(=O)N[C@H]1CSSC[C@@H](C(=O)N[C@H](C(=O)O)[C@@H](C)O)NC(=O)[C@H]([C@@H](C)O)NC(=O)[C@H](CCCCN)NC(=O)[C@@H](Cc2c[nH]c3ccccc23)NC(=O)[C@H](Cc2ccc(O)cc2)NC1=O)c1ccc(C(C(=O)O)N2CCN(CC(=O)O)CCN(CC(=O)O)CCN(CC(=O)O)CC2)cc1` (stereo partly shown) [[^68Ga]19, metal not drawn], for which the “tumor/organ ratios (change)” value in series [1] is recorded as “increasing tumor/organ ratios”. Further, the results for the tissue uptake at 0.5 h in the series “in vivo” (setting [2]), in “in vivo” (kidney accumulation) and in “in vivo” (tumor accumulation) were 2.37 ± 0.35 %ID/g, 20 ± 2.4 %ID/g and 7.73 ± 1.52 %ID/g, respectively. The tissue uptake – broadly, the percentage of the injected dose found per gram of tissue – at 1 h is 1.71 ± 0.17 %ID/g in “in vivo” (setting [2]), 11.9 ± 1.9 %ID/g in the series “in vivo” (kidney accumulation) and 7.46 ± 1.3 %ID/g in the series “in vivo” (tumor accumulation).
